According to patent US8435548 (BIO FD AND C, dated 2013):
Where no end group is shown, it is not given here. The star is where a group is joined. Galloyl = O=C(c1cc(O)c(O)c(O)c1)*

Target: mushroom tyrosinase (1,500 units/ml, Sigma) (mushroom)
Test: cell-based or functional assay

Binder | Inhibition (%) of tyrosinase activity (absorbance at 490 nm, L-tyrosine substrate, compound at 100 µM)
KYHY (also: two galloyl groups, attachment sites not given here) [Digalloyl-tetrapeptide (lysyl-tyrosyl-histidyl-tyrosine)] | 21%
Galloyl-Glu-Cys-Gly [Galloyl-tripeptide (glutamyl-cysteinyl-glycine)] | 34%
Galloyl-YGGFLRKYPK [Galloyl-decapeptide (tyrosyl-glycyl-glycyl-phenylalanyl-leucyl-arginyl-lysyl-tyrosyl-prolyl-lysine)] | 5%
Galloyl-KECG [Galloyl-tetrapeptide (lysyl-glutamyl-cysteinyl-glycine)] | 40%
KECG (also: two galloyl groups, attachment sites shown only in formula IV) [Digalloyl-tetrapeptide (lysyl-glutamyl-cysteinyl-glycine)] | 52%
Galloyl-Tyr-His-Tyr [Galloyl-tripeptide (tyrosyl-histidyl-tyrosine)] | 15%
